Test results: US20150203548A1 (GOVERNMENT OF THE UNITED STATES OF AMERICA AS REPRESENTED …, published 2015)

Target: T1, Staphylococcal Enterotoxin B (SEB) (UniProt P01552 28-266)
T1 sequence: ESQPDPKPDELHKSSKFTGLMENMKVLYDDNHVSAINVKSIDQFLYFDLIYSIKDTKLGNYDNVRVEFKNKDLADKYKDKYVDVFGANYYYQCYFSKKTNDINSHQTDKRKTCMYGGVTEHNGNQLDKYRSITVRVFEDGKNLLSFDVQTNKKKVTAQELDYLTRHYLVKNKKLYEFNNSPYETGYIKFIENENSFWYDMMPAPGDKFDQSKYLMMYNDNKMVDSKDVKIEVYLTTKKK
Test: SPR on SEB-coated chip

B1: sdAb A3 lacking the disulfide (A3-ds) (VHH)
VHH: EVQLVESGGGLVQAGDSLRLSATASGRTFSRAVMGWFRQAPGKEREFVAAISAAPGTAYYAFYADSVRGRFSISADSAKNTVYLQMNSLKPEDTAVYYVAADLKMQVAAYMNQRSVDYWGQGTQVTVSSAAALEHHHHHH
B1: binds.
